Laboratory results reported in patent US20200323973A1 (INSTITUTE FOR SYSTEMS BIOLOGY, published 2020).
Bridge positions count the residues as written; N and C are the ends. Ends that are not written are not given here. * marks the point of attachment. Biotin = O=C1N[C@H]2[C@H](CS[C@H]2CCCCC(=O)*)N1

Tests used:
[1] = target: recombinant full-length MrkA protein with an N-terminal 6xHis-SUMO-tag (MyBiosource, MBS1248970) (Klebsiella pneumoniae) (UniProt P12267); assay: sandwich ELISA 2, 25 nM MrkA; PCC immobilised
[2] = target: recombinant full-length MrkA protein with an N-terminal 6xHis-SUMO-tag (MyBiosource, MBS1248970) (Klebsiella pneumoniae) (UniProt P12267); assay: sandwich ELISA 1, [MrkA] N/A; reference compound, ratio to itself
[3] = target: recombinant full-length MrkA protein with an N-terminal 6xHis-SUMO-tag (MyBiosource, MBS1248970) (Klebsiella pneumoniae) (UniProt P12267); assay: sandwich ELISA 2, 25 nM MrkA; reference compound, ratio to itself
[4] = target: recombinant full-length MrkA protein with an N-terminal 6xHis-SUMO-tag (MyBiosource, MBS1248970) (Klebsiella pneumoniae) (UniProt P12267); assay: sandwich ELISA 3, 50 nM MrkA; reference compound, ratio to itself
[5] = target: recombinant full-length MrkA protein with an N-terminal 6xHis-SUMO-tag (MyBiosource, MBS1248970) (Klebsiella pneumoniae) (UniProt P12267); assay: sandwich ELISA 5, 25 nM MrkA; reference compound, ratio to itself
[6] = target: recombinant full-length MrkA protein with an N-terminal 6xHis-SUMO-tag (MyBiosource, MBS1248970) (Klebsiella pneumoniae) (UniProt P12267); assay: sandwich ELISA 6, 25 nM MrkA; reference compound, ratio to itself
[7] = target: recombinant full-length MrkA protein with an N-terminal 6xHis-SUMO-tag (MyBiosource, MBS1248970) (Klebsiella pneumoniae) (UniProt P12267); assay: sandwich ELISA 4, 100 nM MrkA; reference compound, ratio to itself
[8] = target: recombinant full-length MrkA protein with an N-terminal 6xHis-SUMO-tag (MyBiosource, MBS1248970) (Klebsiella pneumoniae) (UniProt P12267); assay: ELISA with the PCC immobilised, full-length recombinant MrkA (FIG. 3A)
[9] = target: recombinant full-length MrkA protein with an N-terminal 6xHis-SUMO-tag (MyBiosource, MBS1248970) (Klebsiella pneumoniae) (UniProt P12267); assay: sandwich ELISA: biotinylated PCC on NeutrAvidin plate, His-SUMO-MrkA titrated, anti-His detection (FIG. 3A)
[10] = target: recombinant full-length MrkA protein with an N-terminal 6xHis-SUMO-tag (MyBiosource, MBS1248970) (Klebsiella pneumoniae) (UniProt P12267); assay: sandwich ELISA 3, 50 nM MrkA; PCC immobilised
[11] = target: recombinant full-length MrkA protein with an N-terminal 6xHis-SUMO-tag (MyBiosource, MBS1248970) (Klebsiella pneumoniae) (UniProt P12267); assay: sandwich ELISA 6, 25 nM MrkA; PCC immobilised
[12] = target: recombinant full-length MrkA protein with an N-terminal 6xHis-SUMO-tag (MyBiosource, MBS1248970) (Klebsiella pneumoniae) (UniProt P12267); assay: ELISA with the PCC immobilised, full-length recombinant MrkA
[13] = target: recombinant full-length MrkA protein with an N-terminal 6xHis-SUMO-tag (MyBiosource, MBS1248970) (Klebsiella pneumoniae) (UniProt P12267); assay: sandwich ELISA 4, 100 nM MrkA; PCC immobilised
[14] = target: T1, MrkA on Klebsiella pneumoniae cells (assembled into type 3 fimbriae) (Klebsiella pneumoniae, UniProt P12267 23-202); assay: whole-cell ELISA on two strains of MrkA-expressing K. pneumoniae (FIG. 5C); biotinylated PCC, SAv-HRP
T1 construct: whole, on cells; One molecule is used for all three strains; The strain is named under assay; MrkA oligomerises in the fimbriae and the number of copies is not fixed; also called MrkA-expressing K. pneumoniae cells; wild type KPPR1 (ATCC 43816)
T1 sequence: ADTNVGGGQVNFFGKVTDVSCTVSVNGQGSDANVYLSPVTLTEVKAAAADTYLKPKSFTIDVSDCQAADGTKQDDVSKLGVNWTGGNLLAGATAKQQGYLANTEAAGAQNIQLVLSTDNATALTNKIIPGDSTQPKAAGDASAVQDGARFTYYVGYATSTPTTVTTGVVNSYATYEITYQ

[15] = target: T1, MrkA on Klebsiella pneumoniae cells …; assay: flow cytometry on K. pneumoniae BAA 2146, Alexafluor 488 anti-DNP detection
[16] = target: T2, SynEp 1 (SEQ ID NO:38) (Klebsiella pneumoniae, also: one residue replaced by azidolysine, position not given here); assay: sandwich ELISA: biotinylated SynEp immobilised, cy(LLFFF)-DNP titrated, anti-DNP detection; background biotin-PEG6 subtracted
T2 peptide: {Biotin-peg5}-FFGKVTDVSCTVSV

[17] = target: T1, MrkA on Klebsiella pneumoniae cells …; assay: whole-cell ELISA, biotinylated PCC and SAv-HRP; KPPR1 (FIG. 5B); also two MrkA-expressing strains at 5 µM (FIG. 5C)
[18] = target: T1, MrkA on Klebsiella pneumoniae cells …; assay: whole-cell ELISA on wild type KPPR1 (ATCC 43816) grown in G-CAA; biotinylated PCC, SAv-HRP

biotinylated cy(LLFFA) (SEQ ID NO:11) (peptide)
Relative affinity (ratio of ELISA signal to cy(LLFFF)) [1]: 0.04

biotinylated cy(LLFFF) (SEQ ID NO:5) (peptide)
Relative affinity (ratio of ELISA signal to cy(LLFFF)) [2]: 1 | Relative affinity (ratio of ELISA signal to cy(LLFFF)) [3]: 1 | Relative affinity (ratio of ELISA signal to cy(LLFFF)) [4]: 1 | Relative affinity (ratio of ELISA signal to cy(LLFFF)) [5]: 1 | Relative affinity (ratio of ELISA signal to cy(LLFFF)) [6]: 1 | Relative affinity (ratio of ELISA signal to cy(LLFFF)) [7]: 1 | EC50 [8]: 0.23 µM | EC50 [9]: 0.05 µM

cy(AAFFF) (SEQ ID NO:14) (peptide)
Relative affinity (ratio of ELISA signal to cy(LLFFF)) [10]: 0.15

cy(ALFFF) (SEQ ID NO:7) (peptide)
Relative affinity (ratio of ELISA signal to cy(LLFFF)) [1]: 0.53

cy(DLFFF) (SEQ ID NO:12) (peptide)
Relative affinity (ratio of ELISA signal to cy(LLFFF)) [11]: 0.21

cy(GVHRL) (SEQ ID NO:57) (peptide)
affinity (likely) [12]: 1 µM

cy(HLFFF) (SEQ ID NO:13) (peptide)
Relative affinity (ratio of ELISA signal to cy(LLFFF)) [11]: 0.81

cy(LAFFF) (SEQ ID NO:8) (peptide)
Relative affinity (ratio of ELISA signal to cy(LLFFF)) [1]: 0.26

cy(LLAFF) (SEQ ID NO:9) (peptide)
Relative affinity (ratio of ELISA signal to cy(LLFFF)) [1]: 0.59

cy(LLFAF) (SEQ ID NO:10) (peptide)
Relative affinity (ratio of ELISA signal to cy(LLFFF)) [1]: 0.1

cy(TTFFF) (SEQ ID NO:35) (peptide)
Relative affinity (ratio of ELISA signal to cy(LLFFF)) [13]: 0.04 | affinity (likely) [12]: 1 µM

cy(YRHLG) (SEQ ID NO:56) (peptide)
affinity (likely) [12]: 1 µM

B1: biotinylated dummy ligand cy(HNGPT) (SEQ ID NO:18) (peptide)
peptide: HNGPT
modifications: macrocycle: propargylglycine before and azidolysine after the printed residues, joined by a triazole (cy); N-terminal biotin-peg5 tag
binding result [14]: no binding

B2: cy(LLFFF)-DNP (SEQ ID NO:5) (peptide)
peptide: LLFFF-azidolysine
modifications: triazole N-C; not fully specified (N-terminus); printed as cy(LLFFF)-DNP; also: linker peg5 or peg5-peg5 by assay
notes: also called DNP-conjugated cy(LLFFF); lead AR-PCC
binding result [15]: binds | binding result [16]: no binding (tested: 500 nM)

B3: biotinylated cy(LLFFF) (SEQ ID NO:5) (peptide)
peptide: LLFFF-azidolysine
modifications: triazole N-C; not fully specified (N-terminus); also: biotin-PEG tag by assay: Bio-Peg10-peg10, Bio-peg10 or Bio-peg5
notes: The biotin-PEG tags differ between assays; They are non-peptide, so one molecule is used and the tag is named under assay; also called cy(X-LLFFF-Z)
binding result [17]: binds

B4: biotinylated cy(LLFFA) (SEQ ID NO:11) (peptide)
peptide: LLFFA-propargylglycine
modifications: triazole N-C; not fully specified (N-terminus); printed as cy(Z-LLFFA-X); also: biotin-PEG tag: Bio-peg10 or biotin-peg5 (whole-cell ELISA)
notes: also called Compound Number 6; cy(Z-LLFFA-X)
binding result [18]: no binding (tested: 5 µM down to 5 nM)
